Target: recombinant human VEGF (hVEGF-165) (human) (UniProt P15692)
Test: Proteon SPR estimate, mAb-dAb in transfection supernatant

Kd | Binder
40 pM | DT02-K-044-077 in Pascolizumab-(GSTVAAPS)3-T mAb-dAb format (bispecific antibody, part only; not given: Pascolizumab chains and linker, not shown: another chain or arm of the molecule; small tags and cut ends) dAb: DIQMTQSPSSLSASVGDRVTITCRASQWIGPELAWYQQKPGKAPKLLIYHGSILQSGVPSRFSGSGSGTDFTLTISSLQPEDFATYYCQQYMYYPHTFGQGTKVEIKR
52 pM | DT02-K-044-088 in Pascolizumab-(GSTVAAPS)3-T mAb-dAb format (bispecific antibody, part only; not given: pascolizumab chains and linker, not shown: another chain or arm of the molecule; large carriers; small tags and cut ends) dAb: DIQMTQSPSSLSASVGDRVTITCRASQWIGPELNWYQQKPGKAPKLLIYHGSILQSGVPSRFSGSGSGTDFTLTISSLQPEDFATYYCQQYMYYPHTFGQGTKVEIKR
4 pM | DT02-K-044-235 in Pascolizumab-(GSTVAAPS)3-T mAb-dAb format (bispecific antibody, part only; not given: pascolizumab chains and linker, not shown: another chain or arm of the molecule; small tags and cut ends) dAb: DIQMTQSPSSLSASVGDRVTITCRASQWIGPELSWYQQKPGKAPKLLIYHGSILQSGVPSRFSGSGSGTDFTLTISSLQPEDFATYYCQQYMYYPITFGQGTKVEIKR
3 pM | DT02-K-044-092 in Pascolizumab-(GSTVAAPS)3-T mAb-dAb format (bispecific antibody, part only; not given: pascolizumab chains and linker, not shown: another chain or arm of the molecule; large carriers; small tags and cut ends) dAb: DIQMTQSPSSLSASVGDRVTITCRASQWIGPELTWYQQKPGKAPKLLIYHGSILQSGVPSRFSGSGSGTDFTLTISSLQPEDFATYYCQQYMYYPHTFGQGTKVEIKR
23 pM | DT02-K-044-230 in Pascolizumab-(GSTVAAPS)3-T mAb-dAb format (bispecific antibody, part only; not given: pascolizumab chains and linker, not shown: another chain or arm of the molecule; small tags and cut ends) dAb: DIQMTQSPSSLSASVGDRVTITCRASQWIGPELSWYQQKPGKAPKLLIYHGSILQSGVPSRFSGSGSGTDFTLTISSLQPEDFATYYCQQYMYYPCTFGQGTKVEIKR
5 pM | DT02-K-044-087 in Pascolizumab-(GSTVAAPS)3-T mAb-dAb format (bispecific antibody, part only; not given: pascolizumab chains and linker, not shown: another chain or arm of the molecule; large carriers; small tags and cut ends) dAb: DIQMTQSPSSLSASVGDRVTITCRASQWIGPELMWYQQKPGKAPKLLIYHGSILQSGVPSRFSGSGSGTDFTLTISSLQPEDFATYYCQQYMYYPHTFGQGTKVEIKR
6 pM | DT02-K-044-095 in Pascolizumab-(GSTVAAPS)3-T mAb-dAb format (bispecific antibody, part only; not given: pascolizumab chains and linker, not shown: another chain or arm of the molecule; large carriers; small tags and cut ends) dAb: DIQMTQSPSSLSASVGDRVTITCRASQWIGPELYWYQQKPGKAPKLLIYHGSILQSGVPSRFSGSGSGTDFTLTISSLQPEDFATYYCQQYMYYPHTFGQGTKVEIKR
44 pM | DT02-K-044-238 in Pascolizumab-(GSTVAAPS)3-T mAb-dAb format (bispecific antibody, part only; not given: Pascolizumab chains and linker, not shown: another chain or arm of the molecule; small tags and cut ends) dAb: DIQMTQSPSSLSASVGDRVTITCRASQWIGPELSWYQQKPGKAPKLLIYHGSILQSGVPSRFSGSGSGTDFTLTISSLQPEDFATYYCQQYMYYPMTFGQGTKVEIKR
34 pM | DT02-K-044-093 in Pascolizumab-(GSTVAAPS)3-T mAb-dAb format (bispecific antibody, part only; not given: Pascolizumab chains and linker, not shown: another chain or arm of the molecule; large carriers; small tags and cut ends) dAb: DIQMTQSPSSLSASVGDRVTITCRASQWIGPELVWYQQKPGKAPKLLIYHGSILQSGVPSRFSGSGSGTDFTLTISSLQPEDFATYYCQQYMYYPHTFGQGTKVEIKR
4 pM | DT02-K-044-232 in Pascolizumab-(GSTVAAPS)3-T mAb-dAb format (bispecific antibody, part only; not given: pascolizumab chains and linker, not shown: another chain or arm of the molecule; small tags and cut ends) dAb: DIQMTQSPSSLSASVGDRVTITCRASQWIGPELSWYQQKPGKAPKLLIYHGSILQSGVPSRFSGSGSGTDFTLTISSLQPEDFATYYCQQYMYYPETFGQGTKVEIKR
20 pM | DT02-K-044-090 in Pascolizumab-(GSTVAAPS)3-T mAb-dAb format (bispecific antibody, part only; not given: pascolizumab chains and linker, not shown: another chain or arm of the molecule; large carriers; small tags and cut ends) dAb: DIQMTQSPSSLSASVGDRVTITCRASQWIGPELQWYQQKPGKAPKLLIYHGSILQSGVPSRFSGSGSGTDFTLTISSLQPEDFATYYCQQYMYYPHTFGQGTKVEIKR
2 pM | DT02-K-044-229 in Pascolizumab-(GSTVAAPS)3-T mAb-dAb format (bispecific antibody, part only; not given: pascolizumab chains and linker, not shown: another chain or arm of the molecule; small tags and cut ends) dAb: DIQMTQSPSSLSASVGDRVTITCRASQWIGPELSWYQQKPGKAPKLLIYHGSILQSGVPSRFSGSGSGTDFTLTISSLQPEDFATYYCQQYMYYPATFGQGTKVEIKR
18 pM | DT02-K-044-247 in Pascolizumab-(GSTVAAPS)3-T mAb-dAb format (bispecific antibody, part only; not given: pascolizumab chains and linker, not shown: another chain or arm of the molecule; large carriers; small tags and cut ends) dAb: DIQMTQSPSSLSASVGDRVTITCRASQWIGPELSWYQQKPGKAPKLLIYHGSILQSGVPSRFSGSGSGTDFTLTISSLQPEDFATYYCQQYMYYPYTFGQGTKVEIKR
49 pM | DT02-K-044-083 in Pascolizumab-(GSTVAAPS)3-T mAb-dAb format (bispecific antibody, part only; not given: pascolizumab heavy and light chains, not shown: another chain or arm of the molecule; small tags and cut ends) dAb: DIQMTQSPSSLSASVGDRVTITCRASQWIGPELHWYQQKPGKAPKLLIYHGSILQSGVPSRFSGSGSGTDFTLTISSLQPEDFATYYCQQYMYYPHTFGQGTKVEIKR
13 pM | DT02-K-044-239 in Pascolizumab-(GSTVAAPS)3-T mAb-dAb format (bispecific antibody, part only; not given: Pascolizumab chains and linker, not shown: another chain or arm of the molecule; large carriers; small tags and cut ends) dAb: DIQMTQSPSSLSASVGDRVTITCRASQWIGPELSWYQQKPGKAPKLLIYHGSILQSGVPSRFSGSGSGTDFTLTISSLQPEDFATYYCQQYMYYPNTFGQGTKVEIKR
43 pM | DT02-K-044-240 in Pascolizumab-(GSTVAAPS)3-T mAb-dAb format (bispecific antibody, part only; not given: pascolizumab chains and linker, not shown: another chain or arm of the molecule; large carriers; small tags and cut ends) dAb: DIQMTQSPSSLSASVGDRVTITCRASQWIGPELSWYQQKPGKAPKLLIYHGSILQSGVPSRFSGSGSGTDFTLTISSLQPEDFATYYCQQYMYYPPTFGQGTKVEIKR

Target: human HGFδ5 (human) (UniProt P14210)
Sequence (P14210 other isoform, or with tags, fused parts or gaps mutant): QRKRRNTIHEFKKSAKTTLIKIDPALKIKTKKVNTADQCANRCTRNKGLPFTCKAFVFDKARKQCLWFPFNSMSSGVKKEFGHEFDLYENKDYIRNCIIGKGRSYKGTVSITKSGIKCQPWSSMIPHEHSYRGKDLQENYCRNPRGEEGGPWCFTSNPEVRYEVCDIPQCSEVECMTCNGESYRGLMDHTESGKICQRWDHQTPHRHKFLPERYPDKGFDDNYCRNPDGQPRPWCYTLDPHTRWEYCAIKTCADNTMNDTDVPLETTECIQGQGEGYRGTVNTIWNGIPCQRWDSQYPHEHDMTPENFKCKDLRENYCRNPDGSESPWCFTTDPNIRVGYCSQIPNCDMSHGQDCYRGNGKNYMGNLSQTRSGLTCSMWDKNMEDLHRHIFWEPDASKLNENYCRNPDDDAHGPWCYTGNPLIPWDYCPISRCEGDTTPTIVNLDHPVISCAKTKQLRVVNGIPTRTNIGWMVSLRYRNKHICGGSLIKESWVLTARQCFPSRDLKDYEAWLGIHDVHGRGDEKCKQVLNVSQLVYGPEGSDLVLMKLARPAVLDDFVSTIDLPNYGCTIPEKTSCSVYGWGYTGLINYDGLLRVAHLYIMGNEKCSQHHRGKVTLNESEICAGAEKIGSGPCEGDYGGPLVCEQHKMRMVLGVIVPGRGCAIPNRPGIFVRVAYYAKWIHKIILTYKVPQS
Test: Biacore SPR, antibody captured on anti-human IgG, HGF as analyte, 37 C, 1:1 model

Kd | koff | kon | Binder
42 pM | 1.78e-05 s⁻¹ | 423000 M⁻¹ s⁻¹ | BPC 1856, anti-HGF S260116C12VL1 Chimera (antibody, V domains shown, also called chimeric mAb BPC1856) VH: QIQLRQSGAGLMKPGASVKLSCKATGYTFTGYWIEWVKQRPGHDLEWIGEILPGSGTTNYNEKFKGKATFTADTSSNTAYMQLSSLTTEDSAIYYCARGGYYYGSSYDSWGQGTLVTVSS VL: DIVLTQSPASLAVSLGQRATISCRASESVSIHGTHLMHWYQQKPGQPPKLLIYAASNLESGVPARFSGSGSETDFTLNIHPVEEEDAATYFCQQSIEDPYTFGGGTKLEIKR

Target: T1, Human HGFv1 (human, UniProt P14210 32-728)
T1 construct: Biotinylated in the bridging ELISA; also called HGF (fl); HGF full length
T1 sequence (P14210 32-728 limits assumed, form in doubt): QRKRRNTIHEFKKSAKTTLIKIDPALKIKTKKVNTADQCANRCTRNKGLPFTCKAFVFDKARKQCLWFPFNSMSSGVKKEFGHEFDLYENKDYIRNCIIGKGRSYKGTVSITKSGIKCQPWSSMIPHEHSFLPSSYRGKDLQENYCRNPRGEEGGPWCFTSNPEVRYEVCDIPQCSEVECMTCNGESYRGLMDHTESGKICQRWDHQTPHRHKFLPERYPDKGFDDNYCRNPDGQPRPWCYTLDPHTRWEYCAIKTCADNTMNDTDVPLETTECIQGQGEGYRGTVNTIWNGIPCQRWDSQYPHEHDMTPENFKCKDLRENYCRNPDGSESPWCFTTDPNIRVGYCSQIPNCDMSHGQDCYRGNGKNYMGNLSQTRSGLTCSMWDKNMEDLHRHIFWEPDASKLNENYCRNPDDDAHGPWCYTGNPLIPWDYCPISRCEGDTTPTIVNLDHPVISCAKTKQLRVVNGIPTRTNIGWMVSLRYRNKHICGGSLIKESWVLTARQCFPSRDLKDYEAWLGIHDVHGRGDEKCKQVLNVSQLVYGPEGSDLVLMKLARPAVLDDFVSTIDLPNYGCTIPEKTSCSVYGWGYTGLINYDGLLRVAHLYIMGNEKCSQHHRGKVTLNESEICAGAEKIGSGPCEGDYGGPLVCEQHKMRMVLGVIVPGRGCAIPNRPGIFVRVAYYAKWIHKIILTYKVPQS
Test: as above

Kd | koff | kon | Binder
34 pM | 1.49e-05 s⁻¹ | 434000 M⁻¹ s⁻¹ | BPC 1856, anti-HGF S260116C12VL1 Chimera (antibody, V domains shown, also called chimeric mAb BPC1856) VH: QIQLRQSGAGLMKPGASVKLSCKATGYTFTGYWIEWVKQRPGHDLEWIGEILPGSGTTNYNEKFKGKATFTADTSSNTAYMQLSSLTTEDSAIYYCARGGYYYGSSYDSWGQGTLVTVSS VL: DIVLTQSPASLAVSLGQRATISCRASESVSIHGTHLMHWYQQKPGQPPKLLIYAASNLESGVPARFSGSGSETDFTLNIHPVEEEDAATYFCQQSIEDPYTFGGGTKLEIKR
